Test results reported in patent US20050144661A1 (WASHINGTON UNIVERSITY, published 2005).

B1: S2035I FRB-NLuc (other)
chain: MEMWHEGLEEAIRLYFGERNVKGMFEVLEPLHAMMERGPQTLKETSFNQAYGRDLMEAQEWCRKYMKSGNVKDLTQAWDLYYHVFRRISKQQISYASRGGGSSGGGEDAKNIKKGPAPFYPLEDGTAGEQLHKAMKRYALVPGTIAFTDAHIEVDITYAEYFEMSVRLAEAMKRYGLNTNHRIVVCSENSLQFFMPVLGALFIGVAVAPANDIYNERELLNSMGISQPTVVFVSKKGLQKILNVQKKLPIIQKIIIMDSKTDYQGFQSMYTFVTSHLPPGFNEYDFVPESFDRDKTIALIMNSSGSTGLPKGVALPHRTACVRFSHARDPIFGNQIIPDTAILSVVPFHHGFGMFTTLGYLICGFRVVLMYRFEEELFLRSLQDYKIQSALLVPTLFSFFAKSTLIDKYDLSNLHEIASGGAPLSKEVGEAVAKRFHLPGIRQGYGLTETTSAILITPEGDDKPGAVGKVVPFFEAKVVDLDTGKTLGVNQRGELCVRGPMIMSGYVNNPEATNALIDKDG
notes: Point mutant of FRB-NLuc made by site directed mutagenesis; also called mutant FRB(S2035I); FRB(S20351)
B2: Cdc25C-NLuc (other, human;Photinus pyralis, UniProt P30307 1-473, looked up)
chain: MSTELFSSTREEGSSGSGPSFRSNQRKMLNLLLERDTSFTVCPDVPRTPVGKFLGDSANLSILSGGTPKRCLDLSNLSSGEITATQLTTSADLDETGHLDSSGLQEVHLAGMNHDQHLMKCSPAQLLCSTPNGLDRGHRKRDAMCSSSANKENDNGNLVDSEMKYLGSPITTVPKLDKNPNLGEDQAEEISDELMEFSLKDQEAKVSRSGLYRSPSMPENLNRPRLKQVEKFKDNTIPDKVKKKYFSGQGKLRKGLCLKKTVSLCDITITQMLEEDSNQGHLIGDFSKVCALPTVSGKHQDLKYVNPETVAALLSGKFQGLIEKFYVIDCRYPYEYLGGHIQGALNLYSQEELFNFFLKKPIVPLDTQKRIIIVFHCEFSSERGPRMCRCLREEDRSLNQYPALYYPELYILKGGYRDFFPEYMELCEPQSYCPMHHQDHKTELLRCRSQSKVQEGERQLREQIALLVKDMSPEDAKNIKKGPAPFYPLEDGTAGEQLHKAMKRYALVPGTIAFTDAHIEVNITYAEYFEMSVRLAEAMKRYGLNTNHRIVVCSENSLQFFMPVLGALFIGVAVAPANDIYNERELLNSMNISQPTVVFVSKKGLQKILNVQKKLPIIQKIIIMDSKTDYQGFQSMYTFVTSHLPPGFNEYDFVPESFDRDKTIALIMNSSGSTGLPKGVALPHRTACVRFSHARDPIFGNQIIPDTAILSVVPFHHGFGMFTTLGYLICGFRVVLMYRFEEELFLRSLQDYKIQSALLVPTLFSFFAKSTLIDKYDLSNLHEIASGGAPLSKEVGEAVAKRFHLPGIRQGYGLTETTSAILITPEGDDKPGAVGKVVPFFEAKVVDLDTGKTLGVNQRGELCVRGPMIMSGYVNNPEATNALIDKDG
modifications: phosphorylated on S216 in the cells (Western blot, reduced by UCN-01)
notes: FRB of the NLuc fusion vector replaced by the Cdc25C open reading frame; not shown: Gly/Ser linker region reconstituted up to the BsiWI site
B3: CLuc-14-3-3ε (other, UniProt P08659 398-550, looked up)
chain: MSGYVNNPEATNALIDKDGWLHSGDIAYWDEDEHFFIVDRLKSLIKYKGYQVAPAELESILLQHPNIFDAGVAGLPDDDAGELPAAVVVLEHGKTMTEKEIVDYVASQVTTAKKLRGGVVFVDEVPKGLTGKLDARKIREILIKAKKGGKSKLMDDREDLVYQAKLAEQAERYDEMVESMKKVAGMDVELTVEERNLLSVAYKNVIGARRASWRIISSIEQKEENKGGEDKLKMIREYRQMVETELKLICCDILDVLDKHLIPAANTGESKVFYYKMKGDYHRYLAEFATGNDRKEAAENSLVAYKAASDIAMTELPPTHPIRLGLALNFSVFYYEILNSPDRACRLAKAAFDDAIAELDTLSEESYKDSTLIMQLLRDNLTLWTSDMQGDGEEQNKEALQDVEDENQ
notes: FKBP of the CLuc fusion vector replaced by 14-3-3ε; not shown: Gly/Ser linker with cloning sites
B4: Unfused NLuc (2-416) (other, Photinus pyralis, UniProt P08659 2-416, looked up)
chain: EDAKNIKKGPAPFYPLEDGTAGEQLHKAMKRYALVPGTIAFTDAHIEVNITYAEYFEMSVRLAEAMKRYGLNTNHRIVVCSENSLQFFMPVLGALFIGVAVAPANDIYNERELLNSMNISQPTVVFVSKKGLQKILNVQKKLPIIQKIIIMDSKTDYQGFQSMYTFVTSHLPPGFNEYDFVPESFDRDKTIALIMNSSGSTGLPKGVALPHRTACVRFSHARDPIFGNQIIPDTAILSVVPFHHGFGMFTTLGYLICGFRVVLMYRFEEELFLRSLQDYKIQSALLVPTLFSFFAKSTLIDKYDLSNLHEIASGGAPLSKEVGEAVAKRFHLPGIRQGYGLTETTSAILITPEGDDKPGAVGKVVPFFEAKVVDLDTGKTLGVNQRGELCVRGPMIMSGYVNNPEATNALIDKDG
B5: CLuc-STAT1 (other, Photinus pyralis;human, UniProt P08659 398-550, looked up)
chain: MSGYVNNPEATNALIDKDGWLHSGDIAYWDEDEHFFIVDRLKSLIKYKGYQVAPAELESILLQHPNIFDAGVAGLPDDDAGELPAAVVVLEHGKTMTEKEIVDYVASQVTTAKKLRGGVVFVDEVPKGLTGKLDARKIREILIKAKKGGKSKLMSQWYELQQLDSKFLEQVHQLYDDSFPMEIRQYLAQWLEKQDWEHAANDVSFATIRFHDLLSQLDDQYSRFSLENNFLLQHNIRKSKRNLQDNFQEDPIQMSMIIYSCLKEERKILENAQRFNQAQSGNIQSTVMLDKQKELDSKVRNVKDKVMCIEHEIKSLEDLQDEYDFKCKTLQNREHETNGVAKSDQKQEQLLLKKMYLMLDNKRKEVVHKIIELLNVTELTQNALINDELVEWKRRQQSACIGGPPNACLDQLQNWFTIVAESLQQVRQQLKKLEELEQKYTYEHDPITKNKQVLWDRTFSLFQQLIQSSFVVERQPCMPTHPQRPLVLKTGVQFTVKLRLLVKLQELNYNLKVKVLFDKDVNERNTVKGFRKFNILGTHTKVMNMEESTNGSLAAEFRHLQLKEQKNAGTRTNEGPLIVTEELHSLSFETQLCQPGLVIDLETTSLPVVVISNVSQLPSGWASILWYNMLVAEPRNLSFFLTPPCARWAQLSEVLSWQFSSVTKRGLNVDQLNMLGEKLLGPNASPDGLIPWTRFCKENINDKNFPFWLWIESILELIKKHLLPLWNDGCIMGFISKERERALLKDQQPGTFLLRFSESSREGAITFTWVERSQNGGEPDFHAVEPYTKKELSAVTFPDIIRNYKVMAAENIPENPLKYLYPNIDKDHAFGKYYSRPKEAPEPMELDGPKGTGYIKTELISVSEVHPSRLQTTDNLLPMSPEEFDEVSRIVGSVEFDSMMNTV
modifications: unphosphorylated on Y701 in untreated cells (Western blot); phosphorylated after IFN-γ
notes: not shown: Gly/Ser linker with cloning sites
B6: FRB-NLuc(2-416) (other, human;Photinus pyralis, UniProt P42345 2024-2113, looked up)
chain: HEMWHEGLEEASRLYFGERNVKGMFEVLEPLHAMMERGPQTLKETSFNQAYGRDLMEAQEWCRKYMKSGNVKDLTQAWDLYYHVFRRISKEDAKNIKKGPAPFYPLEDGTAGEQLHKAMKRYALVPGTIAFTDAHIEVNITYAEYFEMSVRLAEAMKRYGLNTNHRIVVCSENSLQFFMPVLGALFIGVAVAPANDIYNERELLNSMNISQPTVVFVSKKGLQKILNVQKKLPIIQKIIIMDSKTDYQGFQSMYTFVTSHLPPGFNEYDFVPESFDRDKTIALIMNSSGSTGLPKGVALPHRTACVRFSHARDPIFGNQIIPDTAILSVVPFHHGFGMFTTLGYLICGFRVVLMYRFEEELFLRSLQDYKIQSALLVPTLFSFFAKSTLIDKYDLSNLHEIASGGAPLSKEVGEAVAKRFHLPGIRQGYGLTETTSAILITPEGDDKPGAVGKVVPFFEAKVVDLDTGKTLGVNQRGELCVRGPMIMSGYVNNPEATNALIDKDG
notes: range 2024-2113;range 2-416; The printed ORF starts with an added Met (MEMWHEG...); not shown: flexible Gly/Ser linker with multiple cloning site

Key:
CLuc(398-550)-FKBP [1] = target: T1, CLuc(398-550)-FKBP (Photinus pyralis; human, UniProt P08659 398-550 = luciferase; P62942 1-108); assay: LCI in mice with i.p. implants of transfected HEK-293 cells, with and without rapamycin
T1 construct: The printed ORF starts with an added Met; also called CLuc-FKBP; not shown: flexible Gly/Ser linker with multiple cloning site

CLuc-STAT1 = target: B5; assay: LCI, live HEK-293 cells
STAT1-NLuc = target: T2, STAT1-NLuc (human; Photinus pyralis, UniProt P42224 1-750; P08659 2-416 = luciferase, unphosphorylated on Y701 in untreated cells (Western blot); phosphorylated after IFN-γ); assay: LCI, live HEK-293 cells
T2 construct: not shown: Gly/Ser linker region reconstituted up to the BsiWI site

Unfused CLuc = target: T3, Unfused CLuc (Photinus pyralis); assay: cell-based or functional assay
T3 chain: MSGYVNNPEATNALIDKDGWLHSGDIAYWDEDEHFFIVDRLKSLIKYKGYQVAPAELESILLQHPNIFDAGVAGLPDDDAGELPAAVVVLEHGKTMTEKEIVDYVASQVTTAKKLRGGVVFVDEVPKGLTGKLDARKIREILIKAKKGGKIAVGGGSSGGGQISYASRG

CLuc(398-550)-FKBP [2] = target: T1, CLuc(398-550)-FKBP; assay: cell-based or functional assay

B1
binding result (CLuc(398-550)-FKBP [1]): no binding

B2
binding result (CLuc-STAT1): no binding

B3
binding result (STAT1-NLuc): no binding

B4
background bioluminescence against the FRB-NLuc/CLuc-FKBP pair in the absence of rapamycin (Unfused CLuc): 12 fold less | background bioluminescence against the FRB-NLuc/CLuc-FKBP pair in the presence of rapamycin (Unfused CLuc): 100 fold less

B5
binding result (STAT1-NLuc): binds

B6
bioluminescence signal against FRB-NLuc/CLuc-FKBP without rapamycin (Unfused CLuc): 3 fold lower | apparent Kd of rapamycin for induced FRB/FKBP association, bioluminescence readout in intact HEK-293 cells (CLuc(398-550)-FKBP [2]): 1.5 nM | apparent Ki of FK506 for inhibition of rapamycin-induced luciferase activity in situ (rapamycin 80 nM) (CLuc(398-550)-FKBP [2]): 4.2 nM | bioluminescence induction by rapamycin (80 nM) in cell lysates over untreated lysates, within 15 minutes (CLuc(398-550)-FKBP [2]): 18 fold | drug-specific induction of bioluminescence over background (CLuc(398-550)-FKBP [2]): 1200 fold | maximal mean bioluminescence signal over untransfected cells, with rapamycin, live HEK-293 cells (CLuc(398-550)-FKBP [2]): 72 fold | maximum bioluminescence in rapamycin-treated mice over untreated mice (i.p. cell implants) (CLuc(398-550)-FKBP [2]): 23 fold | mean maximal increase in bioluminescence with rapamycin (80 nM) over untreated transfected cells, within 4-6 hrs (CLuc(398-550)-FKBP [2]): 6 fold | binding result (CLuc-STAT1): no binding
